Columns and labels:
C3b [1] = biological target: C3b (UniProt P01024); assay: SPR (Biacore), FH flowed over C3b amine-coupled to a CM5 chip; steady-state fit to two flow cells (1540 and 3030 RU C3b) together
C3b [2] = biological target: C3b (UniProt P01024); assay: cell-based or functional assay

Chain of C3b (P01024 749-1663 limits assumed, chain 1 of 2): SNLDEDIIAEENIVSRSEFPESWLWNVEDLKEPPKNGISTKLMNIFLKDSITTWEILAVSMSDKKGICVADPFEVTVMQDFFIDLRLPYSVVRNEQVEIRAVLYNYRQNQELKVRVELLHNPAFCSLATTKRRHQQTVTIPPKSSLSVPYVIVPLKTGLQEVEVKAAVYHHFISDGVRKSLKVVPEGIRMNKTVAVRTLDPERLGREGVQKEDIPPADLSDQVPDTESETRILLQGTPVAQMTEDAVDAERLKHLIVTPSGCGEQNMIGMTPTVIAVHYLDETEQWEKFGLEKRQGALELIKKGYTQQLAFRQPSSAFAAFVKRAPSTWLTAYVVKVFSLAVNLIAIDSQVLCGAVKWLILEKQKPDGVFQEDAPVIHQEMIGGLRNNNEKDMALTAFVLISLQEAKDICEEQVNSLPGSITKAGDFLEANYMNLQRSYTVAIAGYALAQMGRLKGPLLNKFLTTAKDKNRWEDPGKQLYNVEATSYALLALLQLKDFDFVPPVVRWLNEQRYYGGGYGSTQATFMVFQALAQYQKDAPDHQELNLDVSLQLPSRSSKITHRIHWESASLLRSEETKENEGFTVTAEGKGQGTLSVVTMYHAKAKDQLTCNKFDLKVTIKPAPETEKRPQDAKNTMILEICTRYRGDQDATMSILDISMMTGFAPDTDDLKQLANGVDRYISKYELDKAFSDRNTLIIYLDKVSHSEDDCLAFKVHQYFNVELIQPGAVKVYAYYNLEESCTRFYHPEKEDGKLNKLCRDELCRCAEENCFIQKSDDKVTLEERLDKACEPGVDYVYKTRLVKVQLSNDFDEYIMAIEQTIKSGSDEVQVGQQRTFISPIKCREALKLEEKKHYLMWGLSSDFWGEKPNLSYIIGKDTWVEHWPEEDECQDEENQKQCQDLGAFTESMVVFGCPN
Chain of C3b (P01024 23-667 limits assumed, chain 2 of 2): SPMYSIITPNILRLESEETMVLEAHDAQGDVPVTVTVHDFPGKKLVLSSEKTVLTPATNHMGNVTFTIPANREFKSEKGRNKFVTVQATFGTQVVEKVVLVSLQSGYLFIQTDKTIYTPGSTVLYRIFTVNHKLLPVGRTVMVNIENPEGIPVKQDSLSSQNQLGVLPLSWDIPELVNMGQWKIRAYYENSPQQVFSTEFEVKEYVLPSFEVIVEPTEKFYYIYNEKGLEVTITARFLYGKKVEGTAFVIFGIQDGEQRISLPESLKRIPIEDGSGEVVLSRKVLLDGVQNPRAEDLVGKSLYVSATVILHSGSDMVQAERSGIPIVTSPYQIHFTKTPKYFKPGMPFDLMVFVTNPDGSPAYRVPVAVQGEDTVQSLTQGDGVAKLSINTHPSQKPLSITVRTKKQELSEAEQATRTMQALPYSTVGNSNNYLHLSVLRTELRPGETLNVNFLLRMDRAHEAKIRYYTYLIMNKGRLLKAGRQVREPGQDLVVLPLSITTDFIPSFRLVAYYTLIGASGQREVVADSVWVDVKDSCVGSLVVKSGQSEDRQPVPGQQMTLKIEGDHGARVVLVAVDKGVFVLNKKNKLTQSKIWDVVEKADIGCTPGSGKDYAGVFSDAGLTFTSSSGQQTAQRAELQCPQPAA

Kd (C3b [1]): 1400 nM
cofactor for factor I-catalysed cleavage of C3b to iC3b (SDS-PAGE, Coomassie blue) (C3b [2]): < 5 min
Substance: recombinant human complement factor H produced in Pichia pastoris from codon-optimised DNA (Example 2) (from UniProt P08603 19-1231)

From patent US20170335310A1
